Data reported in paper PMC7644948 (iScience, 2020).

Target: the molecule itself
Assay: SEC

B1: PKM2 mutant with triple mutations (R399E, K422A, and N523A) (enzyme)
chain: not shown
- stoichiometry N: 2
